Results published in the supplement of paper PMC9112550, “Optimization of the antimicrobial peptide Bac7 by deep mutational scanning” (BMC Biology, 2022).

Test system: Escherichia coli TOP10
Experiment: shrunken log2 fold change of peptide-encoding DNA abundance (4.5 h post-induction vs induction); higher = less antimicrobial activity (less host growth inhibition)
Settings: time post-induction: 4.5 h; library: site-saturation at positions 5, 18, 19, 20
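Also: peptides expressed intracellularly from a pBAD plasmid library in pooled LB shake-flask culture, induced with 0.3% L-arabinose, DNA abundance read by NGS, three biological replicates, DESeq2 with apeglm shrinkage.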

Sequence | shrunken log2 fold change
RRIRNRPPRLPRPRPRPTGCPRP | -0.0633
RRIRNRPPRLPRPRPRPTGFPRP | -0.0139
RRIRNRPPRLPRPRPRPTGQPRP | -0.115
RRIRNRPPRLPRPRPRPTHQPRP | 0.194
RRIRNRPPRLPRPRPRPTIDPRP | -0.492
RRIRNRPPRLPRPRPRPTIKPRP | -0.496
RRIRNRPPRLPRPRPRPTIPPRP | -0.605
RRIRNRPPRLPRPRPRPTKAPRP | -0.00132
RRIRNRPPRLPRPRPRPTKMPRP | 0.00053
RRIRNRPPRLPRPRPRPTKWPRP | -0.2
RRIRNRPPRLPRPRPRPTMWPRP | -0.0923
RRIRNRPPRLPRPRPRPTPGPRP | 0.312
RRIRNRPPRLPRPRPRPTPHPRP | 0.284
RRIRNRPPRLPRPRPRPTQRPRP | 0.582
RRIRNRPPRLPRPRPRPTSPPRP | 0.113
RRIRNRPPRLPRPRPRPTSWPRP | -0.228
RRIRNRPPRLPRPRPRPTSYPRP | 0.00322
RRIRNRPPRLPRPRPRPTVMPRP | 0.178
RRIRNRPPRLPRPRPRPTVWPRP | 0.563
RRIRNRPPRLPRPRPRPTWYPRP | 0.0037
RRIRNRPPRLPRPRPRPTYFPRP | -0.147
RRIRNRPPRLPRPRPRPTYIPRP | -0.603
RRIRNRPPRLPRPRPRPTYPPRP | -0.275
RRIRNRPPRLPRPRPRPTYQPRP | -0.0398
RRIRNRPPRLPRPRPRPTYTPRP | -0.303

Sequence | shrunken log2 fold change
RRIRNRPPRLPRPRPRPTYYPRP | -0.325
RRIRNRPPRLPRPRPRPVAMPRP | -0.198
RRIRNRPPRLPRPRPRPVAQPRP | 0.089
RRIRNRPPRLPRPRPRPVCRPRP | 0.0204
RRIRNRPPRLPRPRPRPVDGPRP | -0.175
RRIRNRPPRLPRPRPRPVDRPRP | 0.148
RRIRNRPPRLPRPRPRPVDYPRP | -0.0368
RRIRNRPPRLPRPRPRPVEIPRP | -0.0323
RRIRNRPPRLPRPRPRPVENPRP | -0.0754
RRIRNRPPRLPRPRPRPVFDPRP | -0.152
RRIRNRPPRLPRPRPRPVGCPRP | 0.618
RRIRNRPPRLPRPRPRPVGDPRP | 0.0156
RRIRNRPPRLPRPRPRPVGNPRP | -0.00879
RRIRNRPPRLPRPRPRPVHGPRP | -0.0581
RRIRNRPPRLPRPRPRPVHMPRP | -0.0948
RRIRNRPPRLPRPRPRPVHRPRP | -0.0338
RRIRNRPPRLPRPRPRPVHSPRP | -0.245
RRIRNRPPRLPRPRPRPVKAPRP | -0.0518
RRIRNRPPRLPRPRPRPVKWPRP | -0.286
RRIRNRPPRLPRPRPRPVLEPRP | 0.183
RRIRNRPPRLPRPRPRPVLVPRP | -0.211
RRIRNRPPRLPRPRPRPVNHPRP | -0.163
RRIRNRPPRLPRPRPRPVPQPRP | 0.24
RRIRNRPPRLPRPRPRPVQEPRP | -0.0428
RRIRNRPPRLPRPRPRPVQKPRP | -0.0122

Sequence | shrunken log2 fold change
RRIRNRPPRLPRPRPRPVSEPRP | -0.253
RRIRNRPPRLPRPRPRPVSFPRP | 0.0749
RRIRNRPPRLPRPRPRPVSLPRP | -0.396
RRIRNRPPRLPRPRPRPVWRPRP | 0.636
RRIRNRPPRLPRPRPRPVWTPRP | -0.118
RRIRNRPPRLPRPRPRPWAFPRP | -0.014
RRIRNRPPRLPRPRPRPWATPRP | -0.188
RRIRNRPPRLPRPRPRPWDVPRP | -0.0115
RRIRNRPPRLPRPRPRPWFHPRP | -0.179
RRIRNRPPRLPRPRPRPWFWPRP | 0.422
RRIRNRPPRLPRPRPRPWGCPRP | -0.00572
RRIRNRPPRLPRPRPRPWGMPRP | -0.214
RRIRNRPPRLPRPRPRPWGYPRP | -0.123
RRIRNRPPRLPRPRPRPWHRPRP | 0.049
RRIRNRPPRLPRPRPRPWISPRP | -0.0184
RRIRNRPPRLPRPRPRPWLHPRP | -0.0277
RRIRNRPPRLPRPRPRPWMAPRP | -0.28
RRIRNRPPRLPRPRPRPWMRPRP | 0.311
RRIRNRPPRLPRPRPRPWPCPRP | -0.185
RRIRNRPPRLPRPRPRPWPGPRP | 0.281
RRIRNRPPRLPRPRPRPWQFPRP | -0.0175
RRIRNRPPRLPRPRPRPWRPPRP | 0.337
RRIRNRPPRLPRPRPRPWRQPRP | -0.0337
RRIRNRPPRLPRPRPRPWSWPRP | 0.266
RRIRNRPPRLPRPRPRPWVEPRP | -0.109

Sequence | shrunken log2 fold change
RRIRNRPPRLPRPRPRPWVRPRP | -0.0742
RRIRNRPPRLPRPRPRPWWMPRP | -0.0246
RRIRNRPPRLPRPRPRPWWSPRP | 0.0428
RRIRNRPPRLPRPRPRPWYPPRP | -0.215
RRIRNRPPRLPRPRPRPYAKPRP | -0.257
RRIRNRPPRLPRPRPRPYCTPRP | -0.169
RRIRNRPPRLPRPRPRPYDTPRP | -0.22
RRIRNRPPRLPRPRPRPYFDPRP | -0.0504
RRIRNRPPRLPRPRPRPYFYPRP | -0.345
RRIRNRPPRLPRPRPRPYHKPRP | -2.76
RRIRNRPPRLPRPRPRPYHPPRP | -0.135
RRIRNRPPRLPRPRPRPYKGPRP | -1.13
RRIRNRPPRLPRPRPRPYKSPRP | -0.00822
RRIRNRPPRLPRPRPRPYLQPRP | -0.00906
RRIRNRPPRLPRPRPRPYMWPRP | -0.328
RRIRNRPPRLPRPRPRPYPIPRP | -0.0592
RRIRNRPPRLPRPRPRPYPLPRP | -0.042
RRIRNRPPRLPRPRPRPYQQPRP | -0.388
RRIRNRPPRLPRPRPRPYQSPRP | -0.00256
RRIRNRPPRLPRPRPRPYRKPRP | -0.0658
RRIRNRPPRLPRPRPRPYRSPRP | -0.0179
RRIRNRPPRLPRPRPRPYSAPRP | -1.37
RRIRNRPPRLPRPRPRPYTFPRP | -0.0167
RRIRNRPPRLPRPRPRPYTKPRP | -0.0607
RRIRNRPPRLPRPRPRPYTLPRP | -0.288

Sequence | shrunken log2 fold change
RRIRNRPPRLPRPRPRPYTNPRP | -0.424
RRIRNRPPRLPRPRPRPYVAPRP | -0.931
RRIRNRPPRLPRPRPRPYWNPRP | -0.108
RRIRNRPPRLPRPRPRPYYDPRP | -0.0248
RRIRNRPPRLPRPRPRPYYTPRP | -1.27
RRIRPRPPRLPRPRPRPAASPRP | -0.0885
RRIRPRPPRLPRPRPRPAAVPRP | 0.41
RRIRPRPPRLPRPRPRPADQPRP | 0.00426
RRIRPRPPRLPRPRPRPAEHPRP | 0.214
RRIRPRPPRLPRPRPRPAEMPRP | 0.189
RRIRPRPPRLPRPRPRPAESPRP | 0.44
RRIRPRPPRLPRPRPRPAGHPRP | 0.0291
RRIRPRPPRLPRPRPRPAHEPRP | 0.356
RRIRPRPPRLPRPRPRPAHKPRP | -0.46
RRIRPRPPRLPRPRPRPAIAPRP | 0.194
RRIRPRPPRLPRPRPRPAIGPRP | -0.0136
RRIRPRPPRLPRPRPRPAIPPRP | -0.0146
RRIRPRPPRLPRPRPRPAMHPRP | 0.367
RRIRPRPPRLPRPRPRPAMNPRP | 0.193
RRIRPRPPRLPRPRPRPAMWPRP | 0.251
RRIRPRPPRLPRPRPRPAPFPRP | 0.143
RRIRPRPPRLPRPRPRPARIPRP | 0.14
RRIRPRPPRLPRPRPRPARKPRP | 0.705
RRIRPRPPRLPRPRPRPASAPRP | 0.441
RRIRPRPPRLPRPRPRPASGPRP | 0.194

Sequence | shrunken log2 fold change
RRIRPRPPRLPRPRPRPASWPRP | 0.362
RRIRPRPPRLPRPRPRPAWDPRP | 0.431
RRIRPRPPRLPRPRPRPAWRPRP | 0.645
RRIRPRPPRLPRPRPRPAWSPRP | 0.152
RRIRPRPPRLPRPRPRPAYLPRP | -0.317
RRIRPRPPRLPRPRPRPAYVPRP | -0.241
RRIRPRPPRLPRPRPRPCAMPRP | 0.0848
RRIRPRPPRLPRPRPRPCCPPRP | -0.377
RRIRPRPPRLPRPRPRPCFQPRP | -0.0314
RRIRPRPPRLPRPRPRPCGFPRP | 0.183
RRIRPRPPRLPRPRPRPCGIPRP | -0.0938
RRIRPRPPRLPRPRPRPCHNPRP | 0.156
RRIRPRPPRLPRPRPRPCIDPRP | -0.742
RRIRPRPPRLPRPRPRPCLDPRP | -0.251
RRIRPRPPRLPRPRPRPCLGPRP | -0.198
RRIRPRPPRLPRPRPRPCLYPRP | -0.595
RRIRPRPPRLPRPRPRPCMWPRP | 0.0459
RRIRPRPPRLPRPRPRPCNSPRP | -0.276
RRIRPRPPRLPRPRPRPCQNPRP | -0.0169
RRIRPRPPRLPRPRPRPCRFPRP | 0.086
RRIRPRPPRLPRPRPRPCSHPRP | -0.0663
RRIRPRPPRLPRPRPRPCVEPRP | 0.021
RRIRPRPPRLPRPRPRPCVHPRP | -0.434
RRIRPRPPRLPRPRPRPCWPPRP | 0.144
RRIRPRPPRLPRPRPRPCWTPRP | -0.397
